These results are taken from article PMC7048800.

Experiment [1] deals with HsNMT1ΔC2 (HsNMT1 deletion variant with truncation of the last two amino acids) (human) (UniProt P30419).
For experiment [2], the target named is HsNMT1ΔC3 (HsNMT1 variant with truncation of the last three amino acids) (human) (UniProt P30419).
For experiment [3], the target named is T1, Long-HsNMT1 (human N-myristoyltransferase 1, residues 99-496) (human) (UniProt P30419).
T1 sequence: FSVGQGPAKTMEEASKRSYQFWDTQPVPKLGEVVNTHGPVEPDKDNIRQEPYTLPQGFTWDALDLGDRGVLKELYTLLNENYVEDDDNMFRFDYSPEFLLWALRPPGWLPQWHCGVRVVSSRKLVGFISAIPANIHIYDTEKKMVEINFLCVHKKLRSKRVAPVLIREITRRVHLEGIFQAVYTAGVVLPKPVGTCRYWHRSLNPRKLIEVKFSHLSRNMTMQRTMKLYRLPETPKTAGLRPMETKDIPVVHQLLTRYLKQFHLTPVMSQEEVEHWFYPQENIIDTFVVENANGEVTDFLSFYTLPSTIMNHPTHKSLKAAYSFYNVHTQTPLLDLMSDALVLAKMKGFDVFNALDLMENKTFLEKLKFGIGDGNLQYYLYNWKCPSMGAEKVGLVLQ

Take GCSVSKKK [GlyCysSerValSerLysLysLys (SOS3) peptide]: the figures for the Km for the peptide in the fluorescence-based coupled in vitro MYR assay with MyrCoA, 30 °C in experiment [1], in experiment [2] and in experiment [3] were 629 µM, 2140 µM and 18 µM, respectively.
